Experimental data taken from publication PMC8517388.
Like-named read-outs stand apart in the source and are kept apart here.

Columns and labels:
[1] = biological target: TROP-2 ectodomain expressed in insect cells (TROP-2-ECD-insect) (human) (UniProt P09758); assay: crystal structure
[2] = biological target: TROP-2 ectodomain expressed in insect cells (TROP-2-ECD-insect) (human) (UniProt P09758); assay: crystal structure; remark: listed apart in the source
[3] = biological target: TROP-2 ectodomain expressed in insect cells (TROP-2-ECD-insect) (human) (UniProt P09758); assay: ITC
[4] = biological target: TROP-2 ectodomain expressed in HEK-293T cells (TROP-2-ECD-293T) (human) (UniProt P09758); assay: crystal structure
[5] = biological target: TROP-2 ectodomain expressed in HEK-293T cells (TROP-2-ECD-293T) (human) (UniProt P09758); assay: crystal structure; remark: listed apart in the source
[6] = BS3 cross-linking, SDS-PAGE; conditions: glycan changed form; control: TROP-2-ECD from HEK-293T cells

Which results are given for “TROP-2 ectodomain expressed in insect cells (TROP-2-ECD-insect) (from UniProt P09758 27-274) (domain or fragment)”?
stoichiometry N [1]: 2; stoichiometry N [2]: 4; Kd [3]: 402 µM; dH [3]: 9.14 kcal/mol

With “TROP-2 ectodomain expressed in HEK-293T cells (TROP-2-ECD-293T) (from UniProt P09758 27-274) (domain or fragment)” as the molecule, how does the stoichiometry N [4] read?
Its stoichiometry N is 2.

And the stoichiometry N [5]?
Its stoichiometry N is 4.

B1: TROP-2 (trophoblast cell surface antigen 2) ectodomain, TROP-2-ECD: expression in insect cells (protein)
parent chain: MARGPGLAPPPLRLPLLLLVLAAVTGHTAAQDNCTCPTNKMTVCSPDGPGGRCQCRALGSGMAVDCSTLTSKCLLLKARMSAPKNARTLVRPSEHALVDNDGLYDPDCDPEGRFKARQCNQTSVCWCVNSVGVRRTDKGDLSLRCDELVRTHHILIDLRHRPTAGAFNHSDLDAELRRLFRERYRLHPKFVAAVHYEQPTIQIELRQNTSQKAAGDVDIGDAAYYFERDIKGESLFQGRGGLDLRVRGEPLQVERTLIYYLDEIPPKFSMKRLTAGLIAVIVVVVVALVAGMAVLVITNRRKSGKYKKVEIKELGELRKEPSL
For B1, which oligomerisation [6] is on record?
Its oligomerisation is “no change”.
